B1: TPR t1 (parent)
chain: GACCAAUCUGCCCUCAGAGCUCGAGAACAUCUUCGGAUGCAGAGGAGGCAGGCUUCGGUGGCGCGAUAGCGCCAACGUCCUCAACCUCCAAUGCAUCCCACCACAUGAUGAUGCCUGAAGAGCCUUGGUUUUUUG

Variants of: B1
Assay: polymerase ribozyme fitness, log enrichment relative to wild type (log ratio); higher = more active; in vitro selection for triplet polymerase activity
Method in brief: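 Each subunit of a heterodimeric triplet polymerase ribozyme was represented by a PCR-built, transcribed mutant library that underwent triplicate single-round in vitro selection with frozen incubation at −7 °C. Extended constructs were recovered by gel excision, streptavidin-bead capture and RT-PCR, and Illumina sequencing of input and output libraries kept genotypes with ≥10 input reads and ≥1 read per output. Fitness is the logarithm of genotype enrichment relative to wild-type enrichment, from inverse-variance-weighted replicate averages, with a logarithm base of 2.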

Variant | polymerase ribozyme fitness (log ratio)
GACCAAUCUGCCCUCAGAGCUCGAGAACAUCUUCGGAUGAAGAGGAGGCAGGCUUCGGUGGCGCGAUAGCGCCAACGUCCUCAACCUCCAAUGCAUCCCACCACAUGAUGAAGCCUGAAGAGCCUUGGUUUUUUG [C40A U112A] | -0.958
GACCAAUCUGCCCUCAGAGCUCGAGAACAUCUUCGGAUGAAGAGGAGGCAGGCUUCGGUGGCGCGAUAGCUCCAACGUCCUCAACCUCCAAUGCAUCCCACCACAUGAUGAUGCGUGAAGAGGCUUGGUUUUUUG [C40A G71U C115G C123G] | -5.05
GACCAAUCUGCCCUCAGAGCUCGAGAACAUCUUCGGAUGAAGAGGAGGCAGGCUUCGGUGUCGCGAUAGCGCCAACGUCCUCAACCUCCAAUGCAUCCCACCACAUGAGGAUGCCUGAAGAGCCUUGGUUUUUUG [C40A G61U U109G] | -6.14
GACCAAUCUGCCCUCAGAGCUCGAGAACAUCUUCGGAUGAAGAGGAGGCAGGCUUCGGUGGCCCGAUAGCGCCAACGUCCUCAACCUCCAAUGCAUCCCACCACAUGAUGAUGCCUGAAGAGUCUUGGUUUUUUG [C40A G63C C123U] | -0.868
GACCAAUCUGCCCUCAGAGCUCGAGAACAUCUUCGGAUGGCGAGGAGGCAGGCUUCGGUGGCGCGAUAGCGCCAACGUCCUCAACCUCCAAUGCAUCCCACCACAUGAUGAUGCCUGAAGAGCCUUGGUUUUUUG [C40G A41C] | -3.16
GACCAAUCUGCCCUCAGAGCUCGAGAACAUCUUCGGAUGAAGAGGAGGCAGGCUUCGGUGGCGCGAUAGCACCAACGUCCUCAACCUCCAAUGCAUCCCACCACAUGAUGAUGCCUGAAGAGCCAUGGUUUUUUG [C40A G71A U125A] | -2.51
GACCAAUCUGCCCUCAGAGCUCGAGAACAUCUUCGGAUGAAGAGGAGGCAGGCUUCGGUGGCGCGAUAGCGCCAACGUCCUCAACCUCCAAUGCAUCCCACCACAUGAUGAUGCCUUAAGAGCCUUGGUUUUUUG [C40A G117U] | -4.5
GACCAAUCUGCCCUCAGAGCUCGAGAACAUCUUCGGAUGAAGAGGAGGCAGGCUUCGGUGGCGCGAUAGCGCCAACGUCCUCAACCUCCAAUGCAUCCCACCACAUGAUGAUGCCUGAAGAGCCUUGGCUUUUUG [C40A U129C] | -1.74
GACCAAUCUGCCCUCAGAGCUCGAGAACAUCUUCGGAUGAAGAGGAGGCAGGCUUCGGUGGCACGAUAGCGCCAACGUCCUCAUCCUCCAAUGCAUCCCACCACAUGAUGAUGCCUGAAGAGCCUUGGUUUUUUG [C40A G63A A84U] | -2.88
GACCAAUCUGCCCUCAGAGCUCGAGAACAUCUUCGGAUGAAGAGGAGGCAGGCUUCGGUAGCGCGAUAGCGCCAACGUCCUCAACCUCCAAUACAUCCCACCACAUGAUGAUGCCUGAAGUGCCUUGGUUUUUUG [C40A G60A G93A A121U] | 1
GACCAAUCUGCCCUCAGAGCUCGAGAACAUCUUCGGAUGAAGAGGAGGCAGGCUUCGGUGGCGCGAUAGCGCCAACGUCCUCAACCUCCAACGCAUCCCACCACAUGAUGAUGCCUGGAGAGCCUUGGUUUUUUG [C40A U92C A118G] | -2.05
GACCAAUCUGCCCUCAGAGCUCGAGAACAUCUUCGGAUGAAGAGGAGGCAGGCUUCGGUGACGCGAUAGCGCCAACGUCCUCAACCUCCAAUGCAUCCCACCACGUGAUGAUGCCUGAAGAGCCUUGGUUUUUUG [C40A G61A A105G] | -4.93
GACCAAUCUGCCCUCAGAGCUCGAGAACAUCUUCGGAUGAAGAGGAGGCAGGCUUCGGUGACGCGAUAGCGCCAACGUCUUCAACCUCCAAUGCAUCCCACCACAUGAUGAUGCCUGAAGAGCCUUGGUUUUUUG [C40A G61A C80U] | -2.91
GACCAAUCUGCCCUCAGAGCUCGAGAACAUCUUCGGAUGAAGAGGAGGCAGGCUUCGGUGGCGCGAUAGCGCCAACGUCCCCAACCUCCAAUGCAUCCCACCACAUGAUGAUGCCUGAAGAGCCUUGGUUUUUUG [C40A U81C] | -1.68
GACCAAUCUGCCCUCAGAGCUCGAGAACAUCUUCGGAUGAAGAGGAGGCAGGCUUCGGUGGCGCGAUAGCGCCAACGUCCUCAACCAUCAAUGCAUCCCACCACAUGAUGAUGCCUGAAGAGCCUUGGUUUUUUC [C40A U87A C88U G135C] | -2.71
GACCAAUCUGCCCUCAGAGCUCGAGAACAUCUUCGGAUGAAGAGGAGGCAGGCUUCGGUGUCGCGAUAGCGCCAACGUCCUCAACCUCCAAUCGAUCCCACCACAUGAUGAUGCCUGAAGAGCUUUGGUUUUUUG [C40A G61U G93C C94G C124U] | -1.28
GACCAAUCUGCCCUCAGAGCUCGAGAACAUCUUCGGAUGAAGAGGAGGCAGGCUUCGGUAACGCGAUAGCGCCAACGUCCUCAACCUCCAAUGCAUCCCACCACAUGAUGAAGCCUGAAGAGCCUUGGUUUUUUG [C40A G60A G61A U112A] | -3
GACCAAUCUGCCCUCAGAGCUCGAGAACAUCUUCGGAUGAAGAGGAGGCAGGCGUCGGUGGUGCGAUAGCGCCAACGUCCUCAACCUCCAAUGCAUCCCACCACAUGAUGAUGCCUGAAGAGCCUUGGUUUUUUG [C40A U54G C62U] | -1.83
GACCAAUCUGCCCUCAGAGCUCGAGAACAUCUUCGGAUGAAGAGGAGGCAGGCUUCGGUGGCGCGAUAGCGCCAACGUCCUCAACCUCCAAUGCAUCCCACCACAUGAUAAUGCCAGAAGAGCCUUGGUUUUUUG [C40A G110A U116A] | -5.12
GACCAAUCUGCCCUCAGAGCUCGAGAACAUCUUCGGAUGAAGAGGAGGCAGGCUUCGGUGGCGCGAUAGCGCCAACGUCCUCAACCUCCAAUGCAUCCCACCACAUGAUGAUGCCUGAAUAGCCUUGGUUUUUUG [C40A G120U] | -0.939
GACCAAUCUGCCCUCAGAGCUCGAGAACAUCUUCGGAUGAAGAGGAGGCAGGCUUCGGUGGCGCGAUAGCGCCAACGUCCUCAACCUCCAAUGCAUCCCACCACAUGAUGAUGCCUGAAAAGCCUUGGUUUUUUG [C40A G120A] | -0.957

Variant | polymerase ribozyme fitness (log ratio)
GACCAAUCUGCCCUCAGAGCUCGAGAACAUCUUCGGAUGGAGUGGAGGCAGGCUUCGGUGGCGCGAUAGCGCCAACGUCCUCAACCUCCAAUGCAUCCCACCACAUGAUGAUGCCUGAAGAGCCUUGGUUUUUUG [C40G A43U] | -2.95
GACCAAUCUGCCCUCAGAGCUCGAGAACAUCUUCGGAUGAAGAGGAGGCAGGCUUCGGUGGCUCGAUAGCGCCAACGUCCUCAACCUCCAAUGCAUCCCACCAUAUGAUGAUGCGUGAAGAGCCUUGGUUUUUUG [C40A G63U C104U C115G] | -3.72
GACCAAUCUGCCCUCAGAGCUCGAGAACAUCUUCGGAUGGAGUGGAGGCAGGCUUCGGUGGCGCGAUAGCGCAAACGUCCUCAACCUCCAAUGCAUCCCACCACAUGAUGAUGCCUGAAGAGCCUCGGUUUUUUG [C40G A43U C73A U126C] | -3.57
GACCAAUCUGCCCUCAGAGCUCGAGAACAUCUUCGGAUGAAGAGGAGGCAGGCUUCGGUGCCGCGAUAGCGCCAACGUGCUCAACCUCCAAUGCAUCCCACCACAUGAUGAUGCCUGAAGAGCCUUGGUUUUUUG [C40A G61C C79G] | -3.56
GACCAAUCUGCCCUCAGAGCUCGAGAACAUCUUCGGAUGGAGUGGAGGCAGGCUUCGGAGGCGCGAUAGAGCCAACGUCCUCAACCUCCAAUGCAUCCCACCACAUGAUGAUGACUUAAGAGCCUUGGUUUUUUG [C40G A43U U59A C70A C114A G117U] | -6.29
GACCAAUCUGCCCUCAGAGCUCGAGAACAUCUUCGGAUGGUGAGAAGGCAGGCUUCGGUAGCGCGAUAGCGCCAACGUCCUCAACCUCCAUUGCAUCCCACCACAUGAUGAUGCCUGAAGAGCCUUGGUUUUUUG [C40G A41U G45A G60A A91U] | -4.96
GACCAAUCUGCCCUCAGAGCUCGAGAACAUCUUCGGAUGAAGAGGAGGCAGGCUUCGGUCGCGCGAUAGCGCCAACGUCCUCAACCUCCAAUGCAUCCCACCACAUGAUGAUGCCUGAAGAGCCUUGGUUUUUUG [C40A G60C] | -3.13
GACCAAUCUGCCCUCAGAGCUCGAGAACAUCUUCGGAUGAAGAGGAGGCAGGCUUCGGUGACGCGAUAGCGCCAACGUCCUCAACCUCCAAUGCAUCCCACCACAUGAUGAUGCCUGAAGAGCCUUGGUUUUUUG [C40A G61A] | -0.734
GACCAAUCUGCCCUCAGAGCUCGAGAACAUCUUCGGAUGAAGAGGAGGCAGGCUUCGGUGUCGCGAUAGCGCCAACGUCCUCAACCUCCAAUGCAUCCCACCACAUGAUGAUGCCUGAAGAGCCUUGGUUUUUUG [C40A G61U] | -1.59
GACCAAUCUGCCCUCAGAGCUCGAGAACAUCUUCGGAUGGAGAGGGGGCAGGCUUCGGUGGCGUGAUAGCGCCAACGUCCUCAACCUCCAAUGCAUCCCACCACAUGAUGAUGCCUGAAGAGCCUUGGUUUUUUG [C40G A46G C64U] | -1.62
GACCAAUCUGCCCUCAGAGCUCGAGAACAUCUUCGGAUGAAGAGGAGGCAGGCUUCGGUGGCACGAUAGCGCCAACGUACUCAACAUCCAAUGCAUCCCACCAAAUGAUGAUGUCUGAAGAGCCUUGGUUUUUUG [C40A G63A C79A C86A C104A C114U] | -7.08
GACCAAUCUGCCCUCAGAGCUCGAGAACAUCUUCGGAUGGAGUGGAGGCAGGCGUCGGUGGCGCGAUAGCGCCAACGUCCUCAACCUCCAAUGCAUCCCACCACAUGAUGAUGCCUGAAGAGCCUUGGUUUUUUG [C40G A43U U54G] | -2.72
GACCAAUCUGCCCUCAGAGCUCGAGAACAUCUUCGGAUGAAGAGGAGGCAGGCUUCGGUGGCGCGAUAGCUCCAACGUCCUCAACCUCCAAUGCAUCCCACCACAUGAUCAUGACUGAAGAGCCUUGGUUUUUUG [C40A G71U G110C C114A] | -6.53
GACCAAUCUGCCCUCAGAGCUCGAGAACAUCUUCGGAUGGAGAGGGGGCAGGCUUCGGUGCCGCGAUAGCGCCAACGUCCUCAAUCUCCAAUGCAUCCCACCACAUGAUGAUGCCUGAAGAGCCUUGGUUUUUUG [C40G A46G G61C C85U] | -6.04
GACCAAUCUGCCCUCAGAGCUCGAGAACAUCUUCGGAUGAAGAGGAGGCAGGCUUCGGUGGCGCGAUAGCGCCAACAUCCUCAACCUCCAAUGCAUCCCACCACAUGAUGAUGCCUGAAGAGCCUUGGUUUUUUG [C40A G77A] | -1.33
GACCAAUCUGCCCUCAGAGCUCGAGAACAUCUUCGGAUGAAGAGGAGGCAGGCUUCGGUGGCGCGAUAGCGCCAACCUCCUCAACCUCCAAUGCAUCCCACCACAUGAUGAUGCCUGAAGAGCCUUGGUUUUUUG [C40A G77C] | -1.98
GACCAAUCUGCCCUCAGAGCUCGAGAACAUCUUCGGAUGAAGAGGAGGCAGGCUUCGGUGGCGCGAUACCGCCAACGUCCUCAACCUCCAAUGCAUCCCACCACAAGAUGAUGCCUGAAGAGCAUUGGUUUUUUG [C40A G69C U106A C124A] | -1.51
GACCAAUCUGCCCUCAGAGCUCGAGAACAUCUUCGGAUGAAGAGGAGGCAGGCUUCGGUGGCGCGAUAUCGCCAACGUCCUCAACCUCCAAUGCAUCCCACCACAUGAUGAUGCCUGAAGAGCCUUGGUUUUUUG [C40A G69U] | -0.43
GACCAAUCUGCCCUCAGAGCUCGAGAACAUCUUCGGAUGAAGAGGAGGCAGGCUUCGGUGGCGCGAUAACGCCAACGUCCUCAACCUCCAAUGCAUCCCACCACAUGAUGAUGCCUGAAGAGCCUUGGUUUUUUG [C40A G69A] | -4.81
GACCAAUCUGCCCUCAGAGCUCGAGAACAUCUUCGGAUGAAGAGGAGGCAGGCUUCGGUAGCGCGAUAGCGCCAACGUCCACAACCUCCAAUGCAUCCCACCACAUGAUGAUGCCUGAAGAGCCUUGGUUUUUUG [C40A G60A U81A] | -2.66
GACCAAUCUGCCCUCAGAGCUCGAGAACAUCUUCGGAUGAAGAGGAGGCAGGCUUCGGUGGCUCGAUAGCGCCAACGUCCACAACCUCCAAUGCAUCCCACCACAUGAUGAUGCCUGAAGAGCCUUGGAUUUUUG [C40A G63U U81A U129A] | -5.05
